This is an account of results in patent publication US11254722B2, “Recombinant proteins and uses thereof” (ACADEMIA SINICA, priority 2017, dated 2022).

One experiment relates to hep3B cells. Nature of the experiment: hep3B proliferation assay. The class given is cell-based, human. How it is done: (§1) For the proliferation assay, cells except for HUVEC were seeded at a density of 1,000 to 6,000 in 96 wells in an assay buffer of DMEM/F12 plus 0.2% BSA and 10 ug/ml transferrin. Chemical inhibitors were added after 16-20 hours after plating; IGF-1 or other growth factors or test chimeras in assay buffer were added at the time of plating or 16-20 hours after plating. 5,000 HUVEC ells were plated in poly-L-lysine coated 96 wells in M199 with 1%/FBS and HEPES. After 3 to 4 days of culture, growth was determined by incubating cells with Alamar blue for 4 to 6 hours and then the fluorescence (RFU) at 544/590 nm was read. For long term proliferation assays, cells were plated in the growth media with 5% or 10% FBS at densities of 500 to 10,000 cells per cm^2 growth area and grown for 7 to 21 days. Inhibitors and effectors were added 1-4 days after plating. Cells were exposed to cisplatin or gemcitabine for two days. Medium was renewed twice weekly. At completion, cells were fixed and then stained with Giemsa.
The human hepatoma cell line hep3B could be stimulated by many growth factors including IGF-1, IGF-2, HGF, bFGF, VEGF, and neuregulin.

The next experiment has as its system HT29 cells. The experiment can be described thus: HT29 proliferation assay. The class given is cell-based, human. The conditions noted are these: FIG. 17A isobologram, FIG. 17B. How it is done:
(§2) MCF-7 cells (a breast cancer cell line) were maintained in MEM (GIBCO) plus insulin and NEAA and 10% FBS (Hyclone).
as §1
The combination of drug (erlotinib and vemurafenib in hep3b and HT29 cells, respectively) and chimera can be synergistic; so, in addition to enhancing the inhibition, the chimera addition may also lower drug concentration requirements and reduce side effects.

In a further experiment the test system is HUVEC cells. Nature of the experiment: HUVEC proliferation assay. The format is cell-based. Here is the method:
as §2, §1
Growth factor synergism can also be observed in the proliferation of HUVEC cells.

For experiment [1], the system named is MCF-7 breast cancer cells. Nature of the experiment: MCF-7 proliferation assay. The class given is cell-based. The conditions noted are these: fetal bovine serum; FIG. 1, FIG. 4. How it is done: as §2, §1
We next examined the effect of 56662 (BP3/Fc) on the proliferation induced by growth factors that interacted with the IGFBP3. The proliferation of MCF-7 breast cancer cells was induced in serum-free medium by individual growth factors like IGF-1, IGF-2, EGF, TGF-a, Nrgbx, b-FGF, and amphiregulin (FIG. 1).

For the molecule `COc1cccc2c1C(=O)c1c(O)c3c(c(O)c1C2=O)C[C@@](O)(C(=O)CO)C[C@@H]3O[C@H]1C[C@H](N)[C@H](O)[C@H](C)O1` [doxorubicin, reference compound], the “proliferation of hep3B cells” value in the experiment with hep3B cells (0.01 uM doxorubicin) is on record as “greatly inhibited”.

B1: D2V1V2Fc: IGFBP3 with IGFBP3 linker deletion 2-gly 3 linker-v1v2-Fc, SEQ ID NO: 17 (protein)
chain: MSEVPVARVWLVLLLLTVQVGVTAGHHHHHHGASSAGLGPVVRCEPCDARALAQCAPPPAVCAELVREPGCGCCLTCALSEGQPCGIYTERCGSGLRCQPSPDEARPLQALLDGRGLCVNASAVSRPAPPAPGNASESEEDRSAGSVESPSVSSTHRVSDPKFHPKGHAKDSQRYKVDYESQSTDTQNFSSESKRETEYGPCRREMEDTLNHLKFLNVLSPRGVHIPNCDKKGFYKKKQCRPSKGRKRGFCWCVDKYGQPLPGYTTKGKEDVHCYSMQSKAPPAPGNASESEEDRSAGIYIFISDTGRPFVEMYSEIPEIIHMTEGRELVIPCRVTSPNITVTLKKFPLDTLIPDGKRIIWDSRKGFIISNATYKEIGLLTCEATVNGHLYKTNYLTHRQGYRIYDVVLSPSHGIELSVGEKLVLNCTARTELNVGIDFNWEYPSSKHQHKKLVNRDLKTQSGSEMKKFLSTLTIDGVTRSDQGLYTCAASSGLMTKKNSTFVRVHEKVECPPCPAPPVAGPSVFLFPPKPKDQLMISRTPEVTCVVVDVSHEDPEVKFNWYVDGVEVHNAKTKPREEQYNSTYRVVSVLTVLHQDWLNGKEYKCKVSNKGLPSSIEKTISKAKGQPREPQVYTLPPSREEMTKNQVSLTCLVKGFYPSDIAVEWESNGQPENNYKTTPPVLDSDGSFFLYSKLTVDKSRWQQGNVFSCSVMHEGLHNHYTQKSLSLSPGK
Turning to B1, in the experiment with HT29 cells, the “inhibition with vemurafenib in HT29 cells” value is “synergistic inhibition”. In the experiment with HUVEC cells (FIG. 14), the “inhibition of HUVEC proliferation stimulated by IGF-1, bFGF, HGF, VEGF, and combinations” value is on record as “inhibited”.

B2: met3con: SEQ ID NO: 32; Met3con is the met3 domain Fc (protein)
chain: MSEVPVARVWLVLLLLTVQVGVTAGAAASGGGSGGGGSGGGGSGGGGDPIVYEIHPTKSFISTWWKEPLNIVSFLFCFASGGSTITGVGKNLNSVSVPRMVINVHEAGRNFTVACQHRSNSEIICCTTPSLQQLNLQLPLKTKAFFMLDGILSKYFDLIYVHSGGGSGGGTGVECPPCPAPPVAGPSVFLFPPKPKDQLMISRTPEVTCVVVDVSHEDPEVKFNWYVDGVEVHNAKTKPREEQYNSTYRVVSVLTVLHQDWLNGKEYKCKVSNKGLPSSIEKTISKAKGQPREPQVYTLPPSREEMTKNQVSLTCLVKGFYPSDIAVEWESNGQPENNYKTTPPVLDSDGSFFLYSKLTVDKSRWQQGNVFSCSVMHEGLHNHYTQKSLSLSPGK
As to B2, in the experiment on hep3B cells (Table 10), the “IC50, FBS-stimulated proliferation of hep3B cells” value is on record as “no inh”; the “IC50, HGF-stimulated proliferation of hep3B cells” value was “no inh”; the “IC50, IGF1-stimulated proliferation of hep3B cells” value is given as “No inh”; the “IC50, bFGF-stimulated proliferation of hep3B cells” value was “no inh”. Moreover, in the experiment with hep3B cells (Table 10), the “IC50, nrg-stimulated proliferation of hep3B cells” value is “No inh”.

B3: 105795: IGFBP3 with IGFBP4 linker deletion-Fc, SEQ ID NO: 9 (protein)
chain: MSEVPVARVWLVLLLLTVQVGVTAGGASSAGLGPVVRCEPCDARALAQCAPPPAVCAELVREPGCGCCLTCALSEGQPCGIYTERCGSGLRCQPSPDEARPLQALLDGRGLCMELAEIEAIQESLQPSDKDEGDHPNNSFSPCSAHDRRCLQETEYGPCRREMEDTLNHLKFLNVLSPRGVHIPNCDKKGFYKKKQCRPSKGRKRGFCWCVDKYGQPLPGYTTKGKEDVHCYSMQSKVECPPCPAPPVAGPSVFLFPPKPKDQLMISRTPEVTCVVVDVSHEDPEVKFNWYVDGVEVHNAKTKPREEQYNSTYRVVSVLTVLHQDWLNGKEYKCKVSNKGLPSSIEKTISKAKGQPREPQVYTLPPSREEMTKNQVSLTCLVKGFYPSDIAVEWESNGQPENNYKTTPPVLDSDGSFFLYSKLTVDKSRWQQGNVFSCSVMHEGLHNHYTQKSLSLSPGK
For B3, the “inhibition of FBS-induced proliferation of MCF-7” value in experiment [1] is “unable to inhibit”.

B4: 3(del2)3: IGFBP3 with IGFBP3 linker deletion 2-Fc, SEQ ID NO: 11 (protein)
chain: MSEVPVARVWLVLLLLTVQVGVTAGGASSAGLGPVVRCEPCDARALAQCAPPPAVCAELVREPGCGCCLTCALSEGQPCGIYTERCGSGLRCQPSPDEARPLQALLDGRGLCVNASAVSRPAPPAPGNASESEEDRSAGSVESPSVSSTHRVSDPKFHPKGHAKDSQRYKVDYESQSTDTQNFSSESKRETEYGPCRREMEDTLNHLKFLNVLSPRGVHIPNCDKKGFYKKKQCRPSKGRKRGFCWCVDKYGQPLPGYTTKGKEDVHCYSMQSKVECPPCPAPPVAGPSVFLFPPKPKDQLMISRTPEVTCVVVDVSHEDPEVKFNWYVDGVEVHNAKTKPREEQYNSTYRVVSVLTVLHQDWLNGKEYKCKVSNKGLPSSIEKTISKAKGQPREPQVYTLPPSREEMTKNQVSLTCLVKGFYPSDIAVEWESNGQPENNYKTTPPVLDSDGSFFLYSKLTVDKSRWQQGNVFSCSVMHEGLHNHYTQKSLSLSPGK
With B4, the “inhibition of VEGF-induced proliferation of HUVEC cells” value with HUVEC cells (FIG. 6, FIG. 13) was “did not inhibit”. Further, the “inhibition of HUVEC proliferation induced by IGF, bFGF, HGF or a combination” value in the experiment with HUVEC cells (FIG. 13) was “inhibited”.

B5: 80716: IGFBP3 with IGFBP6 linker-gly 6 linker-v1v2-Fc, SEQ ID NO: 16 (protein)
chain: MSEVPVARVWLVLLLLTVQVGVTAGGASSAGLGPVVRCEPCDARALAQCAPPPAVCAELVREPGCGCCLTCALSEGQPCGIYTERCGSGLRCQPSPDEARPLQALLDGRGLCPARAPAVAEENPKESKPQAGTARPQDVNRRDQQRNPGTSTTPSQPNSAGVQDTEMGPCRREMEDTLNHLKFLNVLSPRGVHIPNCDKKGFYKKKQCRPSKGRKRGFCWCVDKYGQPLPGYTTKGKEDVHCYSMQSKPARAPAVAEENPKESKPQAGTARPQDVNRRDQQRNPGTSTTPSQPNSAGVQDTEMIYIFISDTGRPFVEMYSEIPEIIHMTEGRELVIPCRVTSPNITVTLKKFPLDTLIPDGKRIIWDSRKGFIISNATYKEIGLLTCEATVNGHLYKTNYLTHRQGYRIYDVVLSPSHGIELSVGEKLVLNCTARTELNVGIDFNWEYPSSKHQHKKLVNRDLKTQSGSEMKKFLSTLTIDGVTRSDQGLYTCAASSGLMTKKNSTFVRVHEKVECPPCPAPPVAGPSVFLFPPKPKDQLMISRTPEVTCVVVDVSHEDPEVKFNWYVDGVEVHNAKTKPREEQYNSTYRVVSVLTVLHQDWLNGKEYKCKVSNKGLPSSIEKTISKAKGQPREPQVYTLPPSREEMTKNQVSLTCLVKGFYPSDIAVEWESNGQPENNYKTTPPVLDSDGSFFLYSKLTVDKSRWQQGNVFSCSVMHEGLHNHYTQKSLSLSPGK
For B5, in experiment [1], the “inhibition of FBS-induced proliferation of MCF-7” value is “unable to inhibit”.
